Source: patent US20240270846A1 (published 2024)
Residue numbers refer to the chain shown, from its start. In names and notes the source's numbering stands.

B1: GLS3000 V94P one-amino acid altered one-arm antibody (CE115HA000-pE22Hh / Kn010G3 / GLS3000 V94P-kappa) (antibody, human IgG1, kappa, L234A L235A, N297A, name in Kabat numbering)
heavy: QVQLVESGGGVVQPGRSLRLSCAASGFTFSNAWMHWVRQAPGKGLEWVAQIKAKSNNYATYYAESVKGRFTISRDDSKNSLYLQMNSLKTEDTAVYYCRYVHYGAYYGVDAWGQGTTVTVSSASTKGPSVFPLAPSSKSTSGGTAALGCLVKDYFPEPVTVSWNSGALTSGVHTFPAVLQSSGLYSLSSVVTVPSSSLGTQTYICNVNHKPSNTKVDKKVEPKSCDKTHTCPPCPAPEAAGGPSVFLFPPKPKDTLMISRTPEVTCVVVDVSHEDPEVKFNWYVDGVEVHNAKTKPREEQYASTYRVVSVLTVLHQDWLNGKEYKCKVSNKALPAPIEKTISKAKGQPREPQVYTLPPSRCELTKNQVSLSCAVKGFYPSDIAVEWESNGQPENNYKTTPPVLDSDGSFFLVSKLTVDKSRWQQGNVFSCSVMHEALHNHYTQKSLSLSPDYKDDDDK
chain: EPKSSDKTHTCPPCPAPELLGGPSVFLFPPKPKDTLMISRTPEVTCVVVDVSHEDPEVKFNWYVDGVEVHNAKTKPREEQYNSTYRVVSVLTVLHQDWLNGKEYKCKVSNKALPAPIEKTISKAKGQPREPQVCTLPPSRDELTKNQVSLWCLVKGFYPSDIAVEWESNGQPENNYKTTPPVLDSDGSFFLYSKLTVDKSRWQQGNVFSCSVMHEALHNRYTQKSLSLSP
light: DIVMTQSPLSLPVTPGEPASISCRSSQSLVHSNRNTYLHWYQQKPGQAPRLLIYKVSNRFSGVPDRFSGSGSGTDFTLKISRVEAEDVGVYYCGQGTQPPYTFGQGTKLEIKRTVAAPSVFIFPPSDEQLKSGTASVVCLLNNFYPREAKVQWKVDNALQSGNSQESVTEQDSKDSTYSLSSTLTLSKADYEKHKVYACEVTHQGLSSPVTKSFNRGEC
notes: One-arm antibody; substitution position in Kabat numbering; also called L chain altered form, Kabat 94 V to P
B2: GLS3000 R77S one-amino acid altered one-arm antibody (CE115HA000-pE22Hh / Kn010G3 / GLS3000 R77S-kappa) (antibody, human IgG1, kappa, L234A L235A, N297A, name in Kabat numbering)
heavy: B1 heavy
chain: B1 chain
light: B1 light with R82S, P99V
notes: One-arm antibody; substitution position in Kabat numbering; also called L chain altered form, Kabat 77 R to S
B3: GLS3000 G89Q one-amino acid altered one-arm antibody (CE115HA000-pE22Hh / Kn010G3 / GLS3000 G89Q-kappa) (antibody, human IgG1, kappa, L234A L235A, N297A, name in Kabat numbering)
heavy: B1 heavy
chain: B1 chain
light: B1 light with G94Q, P99V
notes: One-arm antibody; substitution position in Kabat numbering; also called L chain altered form, Kabat 89 G to Q
B4: GLS3000 G89Y one-amino acid altered one-arm antibody (CE115HA000-pE22Hh / Kn010G3 / GLS3000 G89Y-kappa) (antibody, human IgG1, kappa, L234A L235A, N297A, name in Kabat numbering)
heavy: B1 heavy
chain: B1 chain
light: B1 light with G94Y, P99V
notes: One-arm antibody; substitution position in Kabat numbering; also called L chain altered form, Kabat 89 G to Y
B5: GLS3000 Q90P one-amino acid altered one-arm antibody (CE115HA000-pE22Hh / Kn010G3 / GLS3000 Q90P-kappa) (antibody, human IgG1, kappa, L234A L235A, N297A, name in Kabat numbering)
heavy: B1 heavy
chain: B1 chain
light: B1 light with Q95P, P99V
notes: One-arm antibody; substitution position in Kabat numbering; also called L chain altered form, Kabat 90 Q to P
B6: GLS3000 T92S one-amino acid altered one-arm antibody (CE115HA000-pE22Hh / Kn010G3 / GLS3000 T92S-kappa) (antibody, human IgG1, kappa, L234A L235A, N297A, name in Kabat numbering)
heavy: B1 heavy
chain: B1 chain
light: B1 light with T97S, P99V
notes: One-arm antibody; substitution position in Kabat numbering; also called L chain altered form, Kabat 92 T to S
B7: GLS3000 G89T one-amino acid altered one-arm antibody (CE115HA000-pE22Hh / Kn010G3 / GLS3000 G89T-kappa) (antibody, human IgG1, kappa, L234A L235A, N297A, name in Kabat numbering)
heavy: B1 heavy
chain: B1 chain
light: B1 light with G94T, P99V
notes: One-arm antibody; substitution position in Kabat numbering; also called L chain altered form, Kabat 89 G to T
B8: GLS3000 T92P one-amino acid altered one-arm antibody (CE115HA000-pE22Hh / Kn010G3 / GLS3000 T92P-kappa) (antibody, human IgG1, kappa, L234A L235A, N297A, name in Kabat numbering)
heavy: B1 heavy
chain: B1 chain
light: B1 light with T97P, P99V
notes: One-arm antibody; substitution position in Kabat numbering; also called L chain altered form, Kabat 92 T to P
B9: GLS3000 Q90Y one-amino acid altered one-arm antibody (CE115HA000-pE22Hh / Kn010G3 / GLS3000 Q90Y-kappa) (antibody, human IgG1, kappa, L234A L235A, N297A, name in Kabat numbering)
heavy: B1 heavy
chain: B1 chain
light: B1 light with Q95Y, P99V
notes: One-arm antibody; substitution position in Kabat numbering; also called L chain altered form, Kabat 90 Q to Y
B10: GLS3000 V94R one-amino acid altered one-arm antibody (CE115HA000-pE22Hh / Kn010G3 / GLS3000 V94R-kappa) (antibody, human IgG1, kappa, L234A L235A, N297A, name in Kabat numbering)
heavy: B1 heavy
chain: B1 chain
light: B1 light with P99R
notes: One-arm antibody; substitution position in Kabat numbering; also called L chain altered form, Kabat 94 V to R
B11: GLS3000 V94Y one-amino acid altered one-arm antibody (CE115HA000-pE22Hh / Kn010G3 / GLS3000 V94Y-kappa) (antibody, human IgG1, kappa, L234A L235A, N297A, name in Kabat numbering)
heavy: B1 heavy
chain: B1 chain
light: B1 light with P99Y
notes: One-arm antibody; substitution position in Kabat numbering; also called L chain altered form, Kabat 94 V to Y
B12: GLS3000 G91Y one-amino acid altered one-arm antibody (CE115HA000-pE22Hh / Kn010G3 / GLS3000 G91Y-kappa) (antibody, human IgG1, kappa, L234A L235A, N297A, name in Kabat numbering)
heavy: B1 heavy
chain: B1 chain
light: B1 light with G96Y, P99V
notes: One-arm antibody; substitution position in Kabat numbering; also called L chain altered form, Kabat 91 G to Y
B13: GLS3000 V94T one-amino acid altered one-arm antibody (CE115HA000-pE22Hh / Kn010G3 / GLS3000 V94T-kappa) (antibody, human IgG1, kappa, L234A L235A, N297A, name in Kabat numbering)
heavy: B1 heavy
chain: B1 chain
light: B1 light with P99T
notes: One-arm antibody; substitution position in Kabat numbering; also called L chain altered form, Kabat 94 V to T
B14: GLS3000 P95S one-amino acid altered one-arm antibody (CE115HA000-pE22Hh / Kn010G3 / GLS3000 P95S-kappa) (antibody, human IgG1, kappa, L234A L235A, N297A, name in Kabat numbering)
heavy: B1 heavy
chain: B1 chain
light: B1 light with P99V, P100S
notes: One-arm antibody; substitution position in Kabat numbering; also called L chain altered form, Kabat 95 P to S
B15: GLS3000 T97P one-amino acid altered one-arm antibody (CE115HA000-pE22Hh / Kn010G3 / GLS3000 T97P-kappa) (antibody, human IgG1, kappa, L234A L235A, N297A, name in Kabat numbering)
heavy: B1 heavy
chain: B1 chain
light: B1 light with P99V, T102P
notes: One-arm antibody; substitution position in Kabat numbering; also called L chain altered form, Kabat 97 T to P

The binders below were run against T1, CD3 epsilon homodimer protein (UniProt P07766 23-126) (assay: SPR Biacore T200, CD3 epsilon homodimer immobilised on CM4, one-arm antibody as analyte, single-cycle kinetics; reference unaltered GLS3000 antibody;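 further: CD3 epsilon homodimer attached to the CM4 chip via amine coupling, measured at 25 °C with HBS-EP+ as running buffer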).
T1 construct: also called CD3 (CD3 epsilon)
T1 sequence (P07766 23-126): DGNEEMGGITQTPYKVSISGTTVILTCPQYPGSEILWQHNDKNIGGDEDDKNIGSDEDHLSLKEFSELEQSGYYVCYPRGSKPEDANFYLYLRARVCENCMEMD
Experimental: An appropriate amount of CD3 epsilon homodimer protein was immobilized onto Sensor chip CM4 (GE Healthcare Japan Corp.) by the amine coupling method. Then, the antibody having an appropriate concentration was injected thereto as an analyte and allowed to interact with the CD3 epsilon homodimer protein on the sensor chip. Then, the sensor chip was regenerated by the injection of 10 mmol/L glycine-HCl (pH 1.5). The assay was conducted at 25 degrees C., and HBS-EP+(GE Healthcare Japan Corp.) was used as a running buffer. […] Each parameter was calculated using Biacore T200 Evaluation Software (GE Healthcare Japan Corp.).
Specifically, when the amount of the GLS3000-containing antibody bound was defined as X and the amount of the L chain one-amino acid altered form bound was defined as Y, a value of Z (ratio of amounts bound)=Y/X was used.

Going from B1 to B2, the “dissociation constant KD(M) ratio of L chain altered form to GLS3000” value (shortened to “dissociation constant KD(M) ratio”) falls from 1.1 ratio to 0.94 ratio.

Compared with B3, B4 is lower in “dissociation constant KD(M) ratio” value: 2.11 ratio for the first, 1.12 ratio for the second.

First: B5
Second: B6
The “dissociation constant KD(M) ratio” value of the first is higher: 15.9 ratio for the first, 0.81 ratio for the second.

Compared with B7, B8 is higher in “dissociation constant KD(M) ratio” value: 1.1 ratio for the first, 26.7 ratio for the second.

First: B9
Second: B10
The “dissociation constant KD(M) ratio” value of the first is higher: 36.3 ratio for the first, 1.11 ratio for the second.

First: B11
Second: B12
The “dissociation constant KD(M) ratio” value of the first is lower: 2.45 ratio for the first, 33.8 ratio for the second.

Compared with B13, B14 is higher in “dissociation constant KD(M) ratio” value: 1.06 ratio for the first, 1.19 ratio for the second.

With B15 the “dissociation constant KD(M) ratio” value was 3.35 ratio.
